In doi:10.1101/2023.04.18.537051 (bioRxiv, 2023):

T1: ribosomal protein bS1 of the M. smegmatis 70S ribosome (M. smegmatis (mc2155), UniProt A0QYY6 1-479)
T1 sequence: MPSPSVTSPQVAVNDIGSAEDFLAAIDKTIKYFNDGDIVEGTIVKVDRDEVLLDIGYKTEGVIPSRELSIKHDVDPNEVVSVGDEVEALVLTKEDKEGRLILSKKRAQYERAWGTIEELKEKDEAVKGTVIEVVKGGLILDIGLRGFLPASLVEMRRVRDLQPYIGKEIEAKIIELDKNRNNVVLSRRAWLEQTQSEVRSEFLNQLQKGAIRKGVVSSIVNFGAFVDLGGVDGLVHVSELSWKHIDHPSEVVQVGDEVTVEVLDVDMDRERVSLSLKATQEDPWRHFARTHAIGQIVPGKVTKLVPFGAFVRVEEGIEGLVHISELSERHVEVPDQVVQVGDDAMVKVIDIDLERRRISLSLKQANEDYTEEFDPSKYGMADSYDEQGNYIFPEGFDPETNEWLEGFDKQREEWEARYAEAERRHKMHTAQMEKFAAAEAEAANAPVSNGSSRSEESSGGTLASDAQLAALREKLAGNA

B1: RafH (ribosome associated factor under hypoxia), M. smegmatis MSMEG_3935 (natural protein)
chain: MDVDVSTDGELPGAAEYAREKIGRLSRRAHRPVLHARVRLTRHGDPAVERPVIAQANLDVNGRQVRAQVEGVNAREAVDRLEARLRSRLERIAEHWEARRGGVPAEAGREWRHESEPARRPGYFPRPPEERRIIRRKSFSMVPCTVDEAALEMEMLDYDFHLFTEKGTGFAAVLYKGGPTGYRLVLVIPVPADELSPFEKPITISTHPAPCLTQRDAVERLGLLGLPFLFYIDAAEGRASVIYRRYDGHYGLITPADG

Experiments:
[1] = target: B1; experiment: cryo-EM structure
[2] = target: T1, ribosomal protein bS1 of the M. …; experiment: cryo-EM structure

Binder | binding result [1] | binding result [2]
ribosomal protein uS11 of the M. smegmatis 70S ribosome (natural protein) not shown | binds | –
ribosomal protein uS2 of the M. smegmatis 70S ribosome (natural protein) MAVVTMKQLLDSGAHFGHQTRRWNPKMKRFIFTDRNGIYIIDLQQTLTYIDKAYEFVKETVAHGGTVLFVGTKKQAQESIAEEATRVGMPYVNQRWLGGMLTNFSTVHKRLQRLKELEAMEQTGGFEGRTKKEILMLTREKNKLERSLGGIRDMQKVPSAVWVVDTNKEHIAVGEARKLGIPVIAILDTNCDPDVVDYPIPGNDDAIRSAALLTKVIASAVAEGLQARAGQGSGEKPAEGAEPLAEWEQELLAGATAGAADASAEGAAAPESSTDAS | – | binds
ribosomal protein uS9 of the M. smegmatis 70S ribosome (natural protein) MTDVTETEVVTESAEPREPVIIDRPIQTVGRRKEAVVRVRLVPGTGQFNLDGRTLENYFPNKVHQQLIKAPLVTVDRVDQFDIYAHLDGGGPSGQAGALRLAIARALILVQPEDRPALKKAGFLTRDPRAIERKKYGLKKARKAPQYSKR | binds | –
B1 | – | binds
